# Data: the nanobody polyreactivity screen of Harvey et al. (2022)
# Experiment: yeast display, Sf9 membrane polyspecificity reagent, FACS + sequencing; frameworks hold sequencing errors
# Summary of the method: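 After 36–48 hours of galactose induction, yeast (Saccharomyces cerevisiae BJ5465) displaying a synthetic nanobody library were stained at 4 °C for 1 hour with 10% biotinylated, detergent-solubilized Sf9 membrane reagent. Streptavidin microbeads enriched the stained cells before FACS sorting into low and high (top ~1%) gates on anti-HA and streptavidin fluorescence. Each clone's polyreactivity label reflects its gate of origin.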
row,Sequence,polyreactivity (PSR sort gate)
1,QVQLVESGGGLVQAGGSLRLSSAASGRTFYYYAFGWYRQAPGKERELVARITAICGRTYYADSVKGRFTISLDNAKNTVYLQMNCLKPEDTAVYYCAAASWPAYSYYPFYYWGQGSQVTVSS,high polyreactivity
2,QVQLVESGGGLVQAGGSLRLSSAASGRTISNYDMGWYRQAPGKERELVAAITYSGGSTYYADSVKGRFTISRDNAKNTVYLQMNSLKPEDTAVYYCAKISGTYYRYDYWGQGTQVTVSS,high polyreactivity
3,QVQLVESGGGLVQAGGSLRLSSAASGSIFDPYAMGWYRQAPGKERELVAGISFSGGRTYYADSVKGRFTISRDNAKNTVYLQMNSLKPEDTAVYYCNKLLTQGAYPYYYWGQGTQVTVSS,high polyreactivity
4,QVQLVESGGGLVQAGGSLRLSSAASGSIFGANAIGWYRQAPGKERELVAAISRRGRSTYYADSVKGRFTISRDNAKYTVYLQLNSLKPEDTAVYYSAAKRPQYYVQYGYWGQGTQVTVSS,high polyreactivity
5,QVQLVESGGGLVQAGGSLRLSSAASGSIFGDYVMGWYRPAPGKERELVAAINRGGSTYYADSVKGRFTISRDNAKNTVYLQMNSLKPEDTAVYDCAKDYHNYPSFGVDYCGQGTQVTVSS,low polyreactivity
6,QVQLVESGGGLVQAGGSLRLSSAASGSIFGPYAMGWYRQAPGKERELVAAITWTGGRTYYADSVKGRFTISRDNAKKTVYLQMHSLKPEDTAVDYCAADYSPSTWYLYYTLYYYWGQGTQVTVSS,low polyreactivity
7,QVQLVESGGGLVQAGGSLRLSSAASGSIFGYNPMGWYRPAPGKERELVAAIRISTDNTYYADSVKGRFTISRDNAKNTVYLQMNSLKPEDTAVDYCAADEYWWGYYYWGQGTQVTVSS,high polyreactivity
8,QVQLVESGGGLVQAGGSLRLSSAASGSIFKINAMGWYRQAPGKETELVATITWSTGTTYYADSVKGRFTISRDNAKNTVYLQMNSLKPEDTAVYYCATDGDSTKLDYWGQVTQVTVSS,low polyreactivity
9,QVQLVESGGGLVQAGGSLRLSSAASGSIFLKNAMGRSRQAPGKERELVARISFSGGSTYYADSVKGRFTISRDNAQNTVYLQMNSLKPEDTAVYYCAKTVLRTESGWWIKFDYWGQGTQVTVSS,low polyreactivity
10,QVQLVESGGGLVQAGGSLRLSSAASGSIFSQYDIGWYRPAPGKERQLVAAISSGGSTYYADSVKGRFTISRYNAKNTVYLQMNSLKPEDTAVYYCAAVYYQITTTHYLHLHYDYWGQGTQVTVSS,low polyreactivity
11,QVQLVESGGGLVQAGGSLRLSSAASGSIFVNYVMGWYRQAPGKERELVADISSGGSTYYADSVKGRFTISRDNAKNTVYLQMNSLKPEDTAVYYCNAVYPYTYDYWGQGTQVTVSS,low polyreactivity
12,QVQLVESGGGLVQAGGSLRLSSAASGSIFYDNAMAGYRQAPGKERELVAVITVSGESTYYADSVKGRFTISRDNAKTTVYLQMNSLKPEDTAVYYCNTDAISGSHFWRYITFGYLDDYWGQGTQVTVSS,low polyreactivity
13,QVQLVESGGGLVQAGGSLRLSSAASGSIFYDYAMGWYRQAPGKERELVAAITNDDSSTYYADSVKGRFTISRDNAKNTVYLQMNSLKPEDTAVYYCRFKYAVAHHFWVYRYDYWGQGTQVTVSS,low polyreactivity
14,QVQLVESGGGLVQAGGSLRLSSAASGSIFYGNTMGWYRQAPGKERELVAAIRSVGRTYYADSVKGRFTISRDNAKNTDSLQMNSLKPEDTAVYYCAADPRSYFTSEYWGQGSQVTVSS,low polyreactivity
15,QVQLVESGGGLVQAGGSLRLSSAASGSIFYYYAMGWYRQAPGKARELVATINISDGSTYYAVSVKGRFTISRDNAKNTVYLQMNSLKPEDTAVYYCAAYYYFQDYDYWGQGTQVTVSS,low polyreactivity
16,QVQLVESGGGLVQAGGSLRLSSAASGSIIQSNAIGGYRQAPGTERELVAAISYRGSRTYYADSVKGRFTISRDNAKNTVYIQMNSLKPDDTAVYYCAAVYRTYGIGPNNYWGQGTQVTVSS,high polyreactivity
17,QVQLVESGGGLVQAGGSLRLSSAASGSTFDYYALGWYSQARGKERELVAAISTSGSSTYYADSVKGRFTISRDNAKNTVYLQMNSLKPVDTAVYYCAAPIRYKGGYWGQGTQVTVSS,low polyreactivity
18,QVQLVESGGGLVQAGGSLRLSSAASGSTFDYYAMGWYRQAPGKERELVDGITYSGGTTYYADSVKGRFTISRDNAKNTVYLQMNSLKPEDTAVYYCNAVYDRNFYYWGQGTQVTVSS,high polyreactivity
19,QVQLVESGGGLVQAGGSLRLSSAASGSTFEIYAMGWYRQAPGKERDLVAGITTSDGRTDYADSVKGRFTISRDNAKNTVYLLMNILKPEDTAVYYCAKVTLGYTWYQYDYWGQGTQVTVSS,low polyreactivity
20,QVQLVESGGGLVQAGGSLRLSSAASGSTFFSYAMGWYRQAPGKERELVAAITRSGGSTYYADSVKGRFTISRDNAKNNVYLHMNSLTPEDTSVYYCAVLSALWRVFTERGYWGQGTQVTVSS,high polyreactivity
21,QVQLVESGGGLVQAGGSLRLSSAASGSTFGYNAMGRYRPAPGKERELVAAISRSGGSTSNADSVMGRFTISRDNANNTVYLQMNSLKPEDTAVYYCAARYYKERYWGQGTQVTVSA,low polyreactivity

row,Sequence,polyreactivity (PSR sort gate)
1,QVQLVESGGGLVQAGGSLRLSSAASGSTFHNYAMRWSRQAPGNEREWVASIRLIGGSTYYADSVKGRFTISRDNAKNTVYLQMNSLKPEDTAVYYCAATSTDRSYLEYDYWGQGTQVTVSS,low polyreactivity
2,QVQLVESGGGLVQAGGSLRLSSAASGSTFRTYTMGWYRQAPGKERELVASITSGGRTYYADSVKGRFTISRDNAKNTVYLQMNSMKPEDTAVYYCAADVCKLYDYWGQGTQVTVSS,low polyreactivity
3,QVQLVESGGGLVQAGGSLRLSSAASGSTFRYNAMGWYRQAPGKERELVAAITSTGDSTYYADSVKGRFTISRDNAKNTVYLQMNSLKPEDTAVYYCAARSYASPGWRYEYWGQGTQVTVSS,low polyreactivity
4,QVQLVESGGGLVQAGGSLRLSSAASGSTFRYYPMGWYRQAPGKERELLARISWRGGSTYYADSVKGRFTISRDNAKNTVYLQMNSLKPEDTAVYYCAAVRWVRYRTSAYEYWGQGTQVTVSS,high polyreactivity
5,QVQLVESGGGLVQAGGSLRLSSAASGSTFSLYTMGWYRQEPGKERELVAAITWTGGSTYYADSVKGRFTISRDNAKNTVYLQMNSLKPEDTAVYYCAAVSRLTGSRESQLIRSRMYYWGQGTQVTVSS,high polyreactivity
6,QVQLVESGGGLVQAGGSLRLSSAASGSTFSYYAMGWYRQAPGKDRELVAAITSSGGSTYYADSVKGRFTISRDNAKNTVYLEMNSLKPEDTEVYYCNTAYHVPYDYWGQGTQVTVSS,low polyreactivity
7,QVQLVESGGGLVQAGGSLRLSSAASGSTFTGYTMGWYRQATGKERELVASIRTYYADSVKGRFTISRDNAKNTVYLQMNSLKPEDTAVYYCAADFPSATGGYDYWGQGTQVTVSS,low polyreactivity
8,QVQLVESGGGLVQAGGSLRLSSAASGSTFTRYGMGWYRQAPGKERELVAAITTSGSSTYYADSVKGRFTISRDNAKNTVYLQMNSLKPEDTAVYYCAADWSSWGFDYWGQGTQVTVSS,low polyreactivity
9,QVQLVESGGGLVQAGGSLRLSSAASGSTFVTYAMGWYRQAPGKERELVAAISRRGGSTYYADSVKGRFTISRDNAKNTVYLQMNCLKPEDTAVYYCAPVQGSYSRDGADDYWGQGTQVTVSS,high polyreactivity
10,QVQLVESGGGLVQAGGSLRLSSAASGSTLGVYAMGWYRQAPGKERELVAGITRGGGRTYYADSVKGRFTISRENAKNTVYLQMNSLKPEDTAVYYCNKGQRGPYDYWGQGTQVTVSS,high polyreactivity
11,QVQLVESGGGLVQAGGSLRLSSAASGYILPFYAMGWYRQAPGKERELVASISSSSGRTNYADSVKGRFRISRDYAKNTVFFEMNSLKREVTEVYYCAAAFLSYVSTQYHYDYWGQGTQVSVSS,low polyreactivity
12,QVQLVESGGGLVQAGGSLRLSSAATGITFSSYAMGSYRQAPGKERELVAAISTRGGSTYYADSVKGRFTISRDNAKNTVYLQMNSLKPEDTAVYYCATGGRGGRRYEYWGQGTQVTVSS,low polyreactivity
13,QVQLVESGGGLVQAGGSLRLSSAATGSTSYNDMGWYRQATGKQRELGASITSSGDDTYYADSVKGRFTISRDNAKNTVYLQMNSLKPEDNAVYYCAAEDYHRHVGSYYVIDYDYWGQGTQVTVSS,low polyreactivity
14,QVQLVESGGGLVQAGGSLRLSSAATGYIYSHNAMGWYRQSPGKEREFVAGIDSSGGSTSYADSVKGRFTISRDNAKNTVYLQMNSLKPEDTAVYYCAADRTGSHFDYCGQGTQVTVSS,low polyreactivity
15,QVQLVESGGGLVQAGGSLRLSSADSGFIFSYYAMGWYRQAPGKERELVAAISSVGSTNYADSVKGRFTISRDNAKNTVYLQMNSLKPEDTAVYYCAARYLWYKYYYWGQGTQVTVSS,high polyreactivity
16,QVQLVESGGGLVQAGGSLRLSSADSGRTFRYYSMGWYRQAPGKERELVAAISSSGASTYYADSVKGRFTISRDYAKNTVYLQMNSLKPEDTAVYYCRSGILFYSRYDYWGQGTQVTVSS,low polyreactivity
17,QVQLVESGGGLVQAGGSLRLSSAPSGSTFTRYAMGWYRQAPGKERELVAAITSSGSRTYYADSVKGRFTISRDNAQNTVYLQKNSLKAEDTAVYYFAALGDTRYVGMDHWGQCTQVTVSS,high polyreactivity
18,QVQLVESGGGLVQAGGSLRLSSAPSGSTIHTYTMGWYRQAPGKDRELVAGISRSGGTTYYADSVKGRFTISRDNAKNTVYLQMNSLKPEVTAVYDCNALSSKTDTYDYWGQGTQVTVSS,high polyreactivity
19,QVQLVESGGGLVQAGGSLRLSSDASGFIFSFNALGWYRQAPGKERELVAAISRSGGSTRYADSVKGRFTISRDNAKNTVYLQMNSLKPEDTAVYYCANRFASYRYHPGYDYWGQGTQVTVSS,high polyreactivity
20,QVQLVESGGGLVQAGGSLRLSSDASGRIFYVYTMGWYRQAPGKEREFVAAISDSGGSTYYADSVKGRFTISRDNAKNTVYLQMNSLQTEDTAVYYCNAGYGPAAYYWYYGGYYYWGQGTQVTVSS,low polyreactivity
